T1: B3GNT2 (Homo sapiens, UniProt Q9NY97)
T1 construct: The respective ORFs of candidate genes [CD274 (NM_014143), MCL1 (NM_021960), JUNB (NM_002229), and B3GNT2 (NM_006577)] were synthesized; expressed in transfected cells; host or cells: A375 melanoma cells (lentiviral ORF overexpression)
T1 sequence (Q9NY97 1-397): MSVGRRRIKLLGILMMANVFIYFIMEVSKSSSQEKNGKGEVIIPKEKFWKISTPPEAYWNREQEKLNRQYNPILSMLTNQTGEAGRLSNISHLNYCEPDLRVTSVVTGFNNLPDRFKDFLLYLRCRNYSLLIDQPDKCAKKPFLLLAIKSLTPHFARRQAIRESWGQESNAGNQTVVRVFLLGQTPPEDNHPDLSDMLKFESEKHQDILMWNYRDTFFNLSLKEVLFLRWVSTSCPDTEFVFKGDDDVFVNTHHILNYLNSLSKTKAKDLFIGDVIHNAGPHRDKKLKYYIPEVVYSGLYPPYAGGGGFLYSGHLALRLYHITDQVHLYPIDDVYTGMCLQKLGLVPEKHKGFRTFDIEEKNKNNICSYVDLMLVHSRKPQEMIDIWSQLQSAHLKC


Molecular target: T1, B3GNT2
Test: Co-IP of FLAG-tagged B3GNT2 followed by mass spectrometry
Type: cell-based
Set-up: C-term IgG / C-term flag: unit not given here
Conditions: mass spectrometry count, unit not given; for C-term flag / N-term FLAG: Co-IP with FLAG antibody; for C-term flag / C-term IgG: C-terminally FLAG-tagged B3GNT2; for N-term FLAG / N-term IgG: N-terminally FLAG-tagged B3GNT2; for C-term IgG / N-term IgG: Co-IP with IgG control antibody
Procedure, shortened: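 Co-purifying proteins were identified by fractionated nano-LC–MS/MS on an Orbitrap Elite, run data-dependent. Beforehand, lysates in 1% Triton X-100/HEPES buffer were incubated overnight at 4° C with anti-FLAG or […] and pulled down on Protein A/G magnetic beads for 4 h. Duplicate biological replicates.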

Row | Molecule | C-term flag | N-term FLAG | C-term IgG | N-term IgG
1 | RRBP1 (protein) MDIYDTQTLGVVVFGGFMVVSAIGIFLVSTFSMKETSYEEALANQRKEMAKTHHQKVEKKKKEKTVEKKGKTKKKEEKPNGKIPDHDPAPNVTVLLREPVRAPAVAVAPTPVQPPIIVAPVATVPAMPQEKLASSPKDKKKKEKKVAKVEPAVSSVVNSIQVLTSKAAILETAPKEVPMVVVPPVGAKGNTPATGTTQGKKAEGTQNQSKKAEGAPNQGRKAEGTPNQGKKTEGTPNQGKKAEGTPNQGKKAEGTPNQGKKAEGAQNQGKKVDTTPNQGKKVEGAPTQGRKAEGAQNQAKKVEGAQNQGKKAEGAQNQGKKGEGAQNQGKKAEGAQNQGKKAEGAQNQGKKAEGAQNQGKKAEGAQNQGKKAEGAQNQGKKAEGAQNQGKKVEGAQNQGKKAEGAQNQGKKAEGAQNQGKKAEGAQNQGKKAEGAQNQGKKAEGAQNQGKKAEGAQNQGKKAEGAQNQGKKVEGAQNQGKKAEGAQNQGKKAEGAQNQGKKAEGAQNQGQKGEGAQNQGKKTEGAQGKKAERSPNQGKKGEGAPIQGKKADSVANQGTKVEGITNQGKKAEGSPSEGKKAEGSPNQGKKADAAANQGKKTESASVQGRNTDVAQSPEAPKQEAPAKKKSGSKKKGEPGPPDADGPLYLPYKTLVSTVGSMVFNEGEAQRLIEILSEKAGIIQDTWHKATQKGDPVAILKRQLEEKEKLLATEQEDAAVAKSKLRELNKEMAAEKAKAAAGEAKVKKQLVAREQEITAVQARMQASYREHVKEVQQLQGKIRTLQEQLENGPNTQLARLQQENSILRDALNQATSQVESKQNAELAKLRQELSKVSKELVEKSEAVRQDEQQRKALEAKAAAFEKQVLQLQASHRESEEALQKRLDEVSRELCHTQSSHASLRADAEKAQEQQQQMAELHSKLQSSEAEVRSKCEELSGLHGQLQEARAENSQLTERIRSIEALLEAGQARDAQDVQASQAEADQQQTRLKELESQVSGLEKEAIELREAVEQQKVKNNDLREKNWKAMEALATAEQACKEKLLSLTQAKEESEKQLCLIEAQTMEALLALLPELSVLAQQNYTEWLQDLKEKGPTLLKHPPAPAEPSSDLASKLREAEETQSTLQAECDQYRSILAETEGMLRDLQKSVEEEEQVWRAKVGAAEEELQKSRVTVKHLEEIVEKLKGELESSDQVREHTSHLEAELEKHMAAASAECQNYAKEVAGLRQLLLESQSQLDAAKSEAQKQSDELALVRQQLSEMKSHVEDGDIAGAPASSPEAPPAEQDPVQLKTQLEWTEAILEDEQTQRQKLTAEFEEAQTSACRLQEELEKLRTAGPLESSETEEASQLKERLEKEKKLTSDLGRAATRLQELLKTTQEQLAREKDTVKKLQEQLEKAEDGSSSKEGTSV | 16 | 2 | 2 | 0
2 | STAU1 (protein) MKLGKKPMYKPVDPYSRMQSTYNYNMRGGAYPPRYFYPFPVPPLLYQVELSVGGQQFNGKGKTRQAAKHDAAAKALRILQNEPLPERLEVNGRESEEENLNKSEISQVFEIALKRNLPVNFESFPLKQVARESGPPHMKNFVTKVSVGEFVGEGEGKSKKISKKNAAIAVLEELKKLPPLPAVERVKPRIKKKTKPIVKPQTSPEYGQGINPISRLAQIQQAKKEKEPEYTLLTERGLPRRREFVMQVKVGNHTAEGTGTNKKVAKRNAAENMLEILGFKVPQAQPTKPALKSEEKTPIKKPGDGRKVTFFEPGSGDENGTSNKEDEFRMPYLSHQQLPAGILPMVPEVAQAVGVSQGHHTKDFTRAAPNPAKATVTAMIARELLYGGTSPTAETILKNNISSGHVPHGPLTRPSEQLDYLSRVQGFQVEYKDFPKNNKNEFVSLINCSSQPPLISHGIGKDVESCHDMAALNILKLLSELDQQSTEMPRTGNGPMSVCGRC | 6 | 2 | 0 | 0
3 | TRAFD1 (protein) AEFLDDQETRLCDNCKKEIPVFNFTIHEIHCQRNIGMCPTCKEPFPKSDMETHMAAEHCQVTCKCNKKLEKRLLKKHEETECPLRLAVCQHCDLELSILKLKEHEDYCGARTELCGNCGRNVLVKDLKTHPEVCGREGEEKRNEVAIPPNAYDESWGQDGIWIASQLLRQIEALDPPMRLPRRPLRAFESDVFHNRTTNQRNITAQVSIQNNLFEEQERQERNRGQQPPKEGGEESANLDFMLALSLQNEGQASSVAEQDFWRAVCEADQSHGGPRSLSDIKGAADEIMLPCEFCEELYPEELLIDHQTSCNPSRALPSLNTGSSSPRGVEEPDVIFQNFLQQAASNQLDSLMGLSNSHPVEESIIIPCEFCGVQLEEEVLFHHQDQCDQRPATATNHVTEGIPRLDSQPQETSPELPRRRVRHQGDLSSGYLDDTKQETANGPTSCLPPSRPINNMTATYNQLSRSTSGPRPGCQPSSPCVPKLSNSDSQDIQGRNRDSQNGAIAPGHVSVIRPPQNLYPENIVPSFSPGPSGRYGASGRSEGGRNSRVTPAAANYRSRTAKAKPSKQQGAGDAEEEEEE | 2 | 0 | 0 | 0

Further lines, results first:

Row | C-term flag | N-term FLAG | C-term IgG | N-term IgG | Molecule
4 | 2 | 0 | 0 | 0 | ERP44 (protein) EITSLDTENIDEILNNADVALVNFYADWCRFSQMLHPIFEEASDVIKEEFPNENQVVFARVDCDQHSDIAQRYRISKYPTLKLFRNGMMMKREYRGQRSVKALADYIRQQKSDPIQEIRDLAEITTLDRSKRNIIGYFEQKDSDNYRVFERVANILHDDCAFLSAFGDVSKPERYSGDNIIYKPPGHSAPDMVYLGAMTNFDVTYNWIQDKCVPLVREITFENGEELTEEGLPFLILFHMKEDTESLEIFQNEVARQLISEKGTINFLHADCDKFRHPLLHIQKTPADCPVIAIDSFRHMYVFGDFKDVLIPGKLKQFVFDLHSGKLHREFHHGPDPTDTAPGEQAQDVASSPPESSFQKLAPSEYRYTLLRDRDEL
5 | 3 | 5 | 0 | 0 | PSMB6 (protein) TTIMAVQFDGGVVLGADSRTTTGSYIANRVTDKLTPIHDRIFCCRSGSAADTQAVADAVTYQLGFHSIELNEPPLVHTAASLFKEMCYRYREDLMAGIIIAGWDPQEGGQVYSVPMGGMMVRQSFAIGGSGSSYIYGYVDATYREGMTKEECLQFTANALALAMERDGSSGGVIRLAAIAESGVERQVLLGDQIPKFAVATLPPA
6 | 2 | 0 | 0 | 0 | KTN1 (protein) MEFYESAYFIVLIPSIVITVIFLFFWLFMKETLYDEVLAKQKREQKLIPTKTDKKKAEKKKNKKKEIQNGNLHESDSESVPRDFKLSDALAVEDDQVAPVPLNVVETSSSVRERKKKEKKQKPVLEEQVIKESDASKIPGKKVEPVPVTKQPTPPSEAAASKKKPGQKKSKNGSDDQDKKVETLMVPSKRQEALPLHQETKQESGSGKKKASSKKQKTENVFVDEPLIHATTYIPLMDNADSSPVVDKREVIDLLKPDQVEGIQKSGTKKLKTETDKENAEVKFKDFLLSLKTMMFSEDEALCVVDLLKEKSGVIQDALKKSSKGELTTLIHQLQEKDKLLAAVKEDAAATKDRCKQLTQEMMTEKERSNVVITRMKDRIGTLEKEHNVFQNKIHVSYQETQQMQMKFQQVREQMEAEIAHLKQENGILRDAVSNTTNQLESKQSAELNKLRQDYARLVNELTEKTGKLQQEEVQKKNAEQAATQLKVQLQEAERRWEEVQSYIRKRTAEHEAAQQDLQSKFVAKENEVQSLHSKLTDTLVSKQQLEQRLMQLMESEQKRVNKEESLQMQVQDILEQNEALKAQIQQFHSQIAAQTSASVLAEELHKVIAEKDKQIKQTEDSLASERDRLTSKEEELKDIQNMNFLLKAEVQKLQALANEQAAAAHELEKMQQSVYVKDDKIRLLEEQLQHEISNKMEEFKILNDQNKALKSEVQKLQTLVSEQPNKDVVEQMEKCIQEKDEKLKTVEELLETGLIQVATKEEELNAIRTENSSLTKEVQDLKAKQNDQVSFASLVEELKKVIHEKDGKIKSVEELLEAELLKVANKEKTVQDLKQEIKALKEEIGNVQLEKAQQLSITSKVQELQNLLKGKEEQMNTMKAVLEEKEKDLANTGKWLQDLQEENESLKAHVQEVAQHNLKEASSASQFEELEIVLKEKENELKRLEAMLKERESDLSSKTQLLQDVQDENKLFKSQIEQLKQQNYQQASSFPPHEELLKVISEREKEISGLWNELDSLKDAVEHQRKKNNDLREKNWEAMEALASTEKMLQDKVNKTSKERQQQVEAVELEAKEVLKKLFPKVSVPSNLSYGEWLHGFEKKAKECMAGTSGSEEVKVLEHKLKEADEMHTLLQLECEKYKSVLAETEGILQKLQRSVEQEENKWKVKVDESHKTIKQMQSSFTSSEQELERLRSENKDIENLRREREHLEMELEKAEMERSTYVTEVRELKDLLTELQKKLDDSYSEAVRQNEELNLLKAQLNETLTKLRTEQNERQKVAGDLHKAQQSLELIQSKIVKAAGDTTVIENSDVSPETESSEKETMSVSLNQTVTQLQQLLQAVNQQLTKEKEHYQVLE

Reference: patent US20240261333A1, “NOVEL TARGETS FOR ENHANCING ANTI-TUMOR IMMUNITY” (THE BROAD INSTITUTE, INC., priority 2021, published 2024)
